Article PMC6390363, “Tau as a mediator of neurotoxicity associated to cerebral amyloid angiopathy” (Acta Neuropathologica Communications, 2019)

Biological target: the molecule itself
Test: SDS-PAGE and Western blot of the stirred peptide; ADan peptide 0.5 mg/mL in PBS without calcium and magnesium, stirred at room temperature for up to 48 h, aliquots at 2, 8, 24 and 48 h; blots with anti-ADan 1699 and the conformational anti-oligomer antibody F11G3

B1: ADan peptide (Danish amyloid) (peptide)
peptide: EASNCFAIRHFENKFAVETLICFNLFLNSQEKHY
notes: the C-terminal part differs from wild-type BRI2; also called ADan amyloid peptide; ADan recombinant peptide; source: synthetic peptide (ThermoFisher Scientific, Fmoc-based solid phase peptide synthesis, purified by HPLC)
binding result: binds
